Data published in patent US20250186491A1, “COMPOSITIONS AND METHODS FOR TREATING CANCER WITH CHIMERIC TIM RECEPTORS IN COMBINATION WITH INHIBITORS OF POLY (ADP-RIBOSE) POLYMERASE” (CERO THERAPEUTICS HOLDINGS, INC., priority 2020, published 2025).
Entries after “also recorded” stand apart in the source; their conditions may differ. Like-named read-outs stand apart in the source and are kept apart here.

Assays:
Kuramochi-mCh-NLS cells = assay: Co-culture of chimeric Tim receptor T cells with Niraparib-treated Kuramochi cells (IncuCyte); assay type: cell-based, human
Experimental: Kuramochi cells expressing a mCherry-NLS plasmid were incubated for 20 hours with 25, 12.5, or 6.25 μM Niraparib. The next day the Niraparib concentration was reduced to 0.52 μM and co-cultures of primary human CD4+ and CD8+ T cells expressing chimeric Tim receptor construct 13A (TIM4 binding domain-CD28 transmembrane domain—CD28 costimulatory domain-CD3ζ signaling domain) (SEQ ID NO 162) were added to the Kuramochi culture. […] The number of Kuramochi cells expressing mCherry-NLS was monitored via IncuCyte.
Kuramochi cells expressing a mCherry-NLS plasmid were incubated for ˜20 hours with 1.56 μM Niraparib. The next day, media were removed from cells and replaced with fresh media with 0 μM Niraparib, and primary human CD4+ and CD8+ T cells expressing chimeric Tim receptor CTX140 (Tim4 binding domain-CD28 hinge-CD28 transmembrane-CD28 costimulatory domain-DAP12)(SEQ ID NO: 195) or CTX156 (tEGFR control) were added to the Kuramochi culture. The number of Kuramochi cells expressing mCherry-NLS was monitored via IncuCyte.
21500 Kuramochi ovarian cancer cells expressing an mCherry-NLS plasmid were plated on day 0.25, 12.5, or 6.25 μM Niraparib were added to cell culture ˜4 hours later. ˜20 hours after initial Niraparib dose, primary human CD4+ and CD8+ T cells expressing chimeric Tim receptor CTX137 (Tim4 binding domain-CD28 transmembrane-CD28 costimulatory domain-DAP12) (SEQ ID NO: 197) or CTX156 (tEGFR control) and maintenance dose of 0.52 μM Niraparib were added.
T cell transduction and culturing: CD4 and CD8 T cells were isolated from frozen healthy donor PBMCs using Miltenyi CD4+ and CD8+ isolation kits. CD4 and CD8 T cells were then mixed in a 1:1 ratio and incubated overnight in a flat bottom 24 well plate in OpTmizer medium supplemented with cell serum replacement, IL-Glutamine, GlutaMAX, and IL-2, IL-7, and IL-15 cytokines, and TransAct diluted 1:50. […] T cells were counted and supplemented with fresh medium approximately every two days thereafter. […]

[1] = low phosphatidylserine density, cited from earlier work

B1: CTX140: Tim4 binding domain-CD28 hinge-CD28 transmembrane-CD28 costimulatory domain-DAP12, SEQ ID NO: 195 (protein)
chain: MSKEPLILWLMIEFWWLYLTPVTSETVVTEVLGHRVTLPCLYSSWSHNSNSMCWGKDQCPYSGCKEALIRTDGMRVTSRKSAKYRLQGTIPRGDVSLTILNPSESDSGVYCCRIEVPGWFNDVKINVRLNLQRASTTTHRTATTTTRRTTTTSPTTTRQMTTTPAALPTTVVTTPDLTTGTPLQMTTIAVFTTANTCLSLTPSTLPEEATGLLTPEPSKEGPILTAESETVLPSDSWSSVESTSADTVLLTSKESKVWDLPSTSHVSMWKTSDSVSSPQPGASDTAVPEQNKTTKTGQMDGIPMSMKNEMPISQIEVMYPPPYLDNEKSNGTIIHVKGKHLCPSPLFPGPSKPFWVLVVVGGVLACYSLLVTVAFIIFWVRSKRSRLLHSDYMNMTPRRPGPTRKHYQPYAPPRDFAAYRSYFLGRLVPRGRGAAEAATRKQRITETESPYQELQGQRSDVYSDLNTQRPYYK
modifications: Tim4 binding domain-CD28 hinge-CD28 transmembrane-CD28 costimulatory signaling domain-DAP12 signaling domain, amino acids 1-24 are signal peptide(CTX140)
In the case of B1, the “number of Kuramochi cells in culture vs mock transduction control” value (Kuramochi-mCh-NLS cells; Niraparib 1.56 μM pre-incubation ~20 h, then 0 μM, control CTX156, FIG. 5) is reported as “reduces Kuramochi cell numbers; also recorded: significantly reduce the number of Kuramochi cells”.

B2: CTX137: Tim4 binding domain-CD28 transmembrane-CD28 costimulatory domain-DAP12, SEQ ID NO: 197 (protein)
chain: MSKEPLILWLMIEFWWLYLTPVTSETVVTEVLGHRVTLPCLYSSWSHNSNSMCWGKDQCPYSGCKEALIRTDGMRVTSRKSAKYRLQGTIPRGDVSLTILNPSESDSGVYCCRIEVPGWFNDVKINVRLNLQRASTTTHRTATTTTRRTTTTSPTTTRQMTTTPAALPTTVVTTPDLTTGTPLQMTTIAVFTTANTCLSLTPSTLPEEATGLLTPEPSKEGPILTAESETVLPSDSWSSVESTSADTVLLTSKESKVWDLPSTSHVSMWKTSDSVSSPQPGASDTAVPEQNKTTKTGQMDGIPMSMKNEMPISQFWVLVVVGGVLACYSLLVTVAFIIFWVRSKRSRLLHSDYMNMTPRRPGPTRKHYQPYAPPRDFAAYRSYFLGRLVPRGRGAAEAATRKQRITETESPYQELQGQRSDVYSDLNTQRPYYK
modifications: Tim4 binding domain-CD28 transmembrane-CD28 costimulatory signaling domain-DAP12 signaling domain, amino acids 1-24 are signal peptide (CTX137)
With B2 the Kuramochi cell numbers (Kuramochi-mCh-NLS cells; Niraparib 25 μM pre-incubation + 0.52 μM maintenance, control CTX156, FIG. 6) was “reduces Kuramochi cell numbers” and the “number of Kuramochi cells in culture vs mock transduction control” value (Kuramochi-mCh-NLS cells; Niraparib 25, 12.5 or 6.25 μM pre-treatment ~20 h, then 0.52 μM, CD4+/CD8+ T cells, FIG. 4, FIG. 7) was “reduces Kuramochi cell numbers; also recorded: significantly reduce the number of Kuramochi cells”.

B3: Tim-4: phosphatidylserine receptor typically expressed on antigen presenting cells (protein, UniProt Q96H15 25-378, looked up)
T-cell immunoglobulin and …: ETVVTEVLGHRVTLPCLYSSWSHNSNSMCWGKDQCPYSGCKEALIRTDGMRVTSRKSAKYRLQGTIPRGDVSLTILNPSESDSGVYCCRIEVPGWFNDVKINVRLNLQRASTTTHRTATTTTRRTTTTSPTTTRQMTTTPAALPTTVVTTPDLTTGTPLQMTTIAVFTTANTCLSLTPSTLPEEATGLLTPEPSKEGPILTAESETVLPSDSWSSVESTSADTVLLTSKESKVWDLPSTSHVSMWKTSDSVSSPQPGASDTAVPEQNKTTKTGQMDGIPMSMKNEMPISQLLMIIAPSLGFVLFALFVAFLLRGKLMETYCSQKHTRLDYIGDSKNVLNDVQHGREDEDGLFTL
In the case of B3, the “binding at Low PtdSer” value [1] is given as “Minimal” and the “binding at Low PtdSer” value ([1]; listed as Tim4 binding domain) is given as “binds minimally”.
